Laboratory results: publication PMC10279719 (Nature Communications, 2023)

Key:
Conditions in all cases: both partners purified
[1] = molecular target: T1, PEAK3 tandem-pS69 peptide (residues 54-74) (human, N-terminal acetyl; phosphoserine at S69; C-terminal amide); assay: ITC; binary; peptide in the cell (20 µM, or 16.8 µM after a buffer titration), protein in the syringe; 25 °C, 20 mM HEPES pH 7.4, 150 mM NaCl, 1 mM TCEP; single binding site model
T1 construct: source: synthetic peptide, bought: Mimotopes (95% purity)
T1 peptide: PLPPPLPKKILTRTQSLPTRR

[2] = molecular target: T2, PEAK3 tandem peptide, non-phosphorylated (residues 54-74) (human, N-terminal acetyl; C-terminal amide); assay: as above
T2 construct: source: synthetic peptide, bought: Mimotopes (95% purity)
T2 peptide: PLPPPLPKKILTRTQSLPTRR

[3] = molecular target: T3, PEAK2^IDR1 (residues 802-1406), from insect cells (human, UniProt Q86YV5 802-1406, phosphorylation of the tandem site 14-3-3 motif (RAASSP) found by proteomic analysis; biotin (EZ-Link NHS-PEG4-Biotin, 1:1 molar ratio)); assay: SPR; biotinylated PEAK proteins (with or without Src phosphorylation) captured with a biotin CAPture kit, CrkII NSH3 as analyte; Biacore 8K+, 20 °C, HBS-TP (150 mM NaCl); 1 M NaCl regeneration; steady state
T3 construct: human PEAK2 (SgK223, PRAG1), UniProt Q86YV5, residues 802-1406; Purifies as a homodimer
T3 sequence (looked up): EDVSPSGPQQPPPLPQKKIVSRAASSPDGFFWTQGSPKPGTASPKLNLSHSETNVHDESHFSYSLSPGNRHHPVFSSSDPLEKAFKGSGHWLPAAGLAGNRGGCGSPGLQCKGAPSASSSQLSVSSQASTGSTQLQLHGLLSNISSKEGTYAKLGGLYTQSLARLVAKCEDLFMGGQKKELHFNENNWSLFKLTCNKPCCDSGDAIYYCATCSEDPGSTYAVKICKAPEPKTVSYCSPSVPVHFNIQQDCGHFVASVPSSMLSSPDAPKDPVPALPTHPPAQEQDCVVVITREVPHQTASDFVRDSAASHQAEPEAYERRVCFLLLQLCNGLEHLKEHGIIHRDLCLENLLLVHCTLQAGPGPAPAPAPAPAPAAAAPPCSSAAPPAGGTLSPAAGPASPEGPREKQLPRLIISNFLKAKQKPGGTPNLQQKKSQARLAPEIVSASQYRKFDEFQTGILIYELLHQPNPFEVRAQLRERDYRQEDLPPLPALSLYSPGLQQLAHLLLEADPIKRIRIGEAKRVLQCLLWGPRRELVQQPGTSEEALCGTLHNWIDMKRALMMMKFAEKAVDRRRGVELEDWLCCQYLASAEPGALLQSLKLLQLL

[4] = molecular target: T4, PEAK2^IDR1 (residues 802-1406), from insect cells, phosphorylated by Src (human, UniProt Q86YV5 802-1406, phosphorylated with Src kinase, sites not stated; phosphorylation of the tandem site 14-3-3 motif (RAASSP) found by proteomic analysis; biotin (EZ-Link NHS-PEG4-Biotin, 1:1 molar ratio)); assay: as above
T4 construct: human PEAK2 (SgK223, PRAG1), UniProt Q86YV5, residues 802-1406; also called PEAK2-IDR1 (+ Src phosphorylation); source: Sf21 insect cells, purified; phosphorylated in vitro with recombinant Src kinase domain
T4 sequence (looked up): T3 sequence (looked up)

[5] = molecular target: T2, PEAK3 tandem peptide, …; assay: ITC; second of two sequential titrations ('ternary'); CrkII NSH3 (400 µM) in the syringe titrated into the non-phosphorylated PEAK3 tandem peptide (16.8 µM) with the 14-3-3γ of the first titration, which did not bind, still in the cell; 25 °C, 20 mM HEPES pH 7.4, 150 mM NaCl, 1 mM TCEP

B1: CrkII N-terminal SH3 domain (CrkII^NSH3, residues 134-191) (domain or fragment, human, UniProt P46108-1 134-191, looked up)
chain: AEYVRALFDFNGNDEEDLPFKKGDILRIRDKPEEQWWNAEDSEGKRGMIPVPYVEKYR
notes: human CrkII NSH3 domain, UniProt P46108-1, residues 134-191; Amine coupled to a CM5 chip in a2; analyte in a4; in the syringe in ITC
[1]
  stoichiometry N: 0.823
[2]
  stoichiometry N: 0.904
[3]
  Kd: 4.79 µM
[4]
  Kd: 5.2 µM
[5]
  stoichiometry N: 0.654
